The assay concerns the target T1, endogenous NIBP (NIK and IKK2 Binding Protein) in MCF7 cells (human (MCF7 cells; species not printed …, UniProt Q96Q05 1-1148, limits assumed).
T1 construct: Immunoprecipitated from whole cell lysate with anti-NIBP antibody
In words: co-immunoprecipitation with anti-NIBP antibody from MCF7 lysate, immunoblot anti-IKK1/2 and anti-IKK1. The text has this:
Endogenous NIBP interacts with endogenous IKK2 in breast cancer cells. NIBP association with IKK2, but not IKK1, occurred in MCF7 cells. The level of IKK1 was confirmed by immunoblotting of the same blot (without stripping) with a specific anti-IKK1 antibody. The IKK2 co-immunoprecipitated with NIBP was phosphorylated as shown by the band shift compared to the input and the immunoblotting with anti-phospho IKK1/2(Ser-177/181) antibody (FIG. 4).

T1 sequence (Q96Q05 whole entry): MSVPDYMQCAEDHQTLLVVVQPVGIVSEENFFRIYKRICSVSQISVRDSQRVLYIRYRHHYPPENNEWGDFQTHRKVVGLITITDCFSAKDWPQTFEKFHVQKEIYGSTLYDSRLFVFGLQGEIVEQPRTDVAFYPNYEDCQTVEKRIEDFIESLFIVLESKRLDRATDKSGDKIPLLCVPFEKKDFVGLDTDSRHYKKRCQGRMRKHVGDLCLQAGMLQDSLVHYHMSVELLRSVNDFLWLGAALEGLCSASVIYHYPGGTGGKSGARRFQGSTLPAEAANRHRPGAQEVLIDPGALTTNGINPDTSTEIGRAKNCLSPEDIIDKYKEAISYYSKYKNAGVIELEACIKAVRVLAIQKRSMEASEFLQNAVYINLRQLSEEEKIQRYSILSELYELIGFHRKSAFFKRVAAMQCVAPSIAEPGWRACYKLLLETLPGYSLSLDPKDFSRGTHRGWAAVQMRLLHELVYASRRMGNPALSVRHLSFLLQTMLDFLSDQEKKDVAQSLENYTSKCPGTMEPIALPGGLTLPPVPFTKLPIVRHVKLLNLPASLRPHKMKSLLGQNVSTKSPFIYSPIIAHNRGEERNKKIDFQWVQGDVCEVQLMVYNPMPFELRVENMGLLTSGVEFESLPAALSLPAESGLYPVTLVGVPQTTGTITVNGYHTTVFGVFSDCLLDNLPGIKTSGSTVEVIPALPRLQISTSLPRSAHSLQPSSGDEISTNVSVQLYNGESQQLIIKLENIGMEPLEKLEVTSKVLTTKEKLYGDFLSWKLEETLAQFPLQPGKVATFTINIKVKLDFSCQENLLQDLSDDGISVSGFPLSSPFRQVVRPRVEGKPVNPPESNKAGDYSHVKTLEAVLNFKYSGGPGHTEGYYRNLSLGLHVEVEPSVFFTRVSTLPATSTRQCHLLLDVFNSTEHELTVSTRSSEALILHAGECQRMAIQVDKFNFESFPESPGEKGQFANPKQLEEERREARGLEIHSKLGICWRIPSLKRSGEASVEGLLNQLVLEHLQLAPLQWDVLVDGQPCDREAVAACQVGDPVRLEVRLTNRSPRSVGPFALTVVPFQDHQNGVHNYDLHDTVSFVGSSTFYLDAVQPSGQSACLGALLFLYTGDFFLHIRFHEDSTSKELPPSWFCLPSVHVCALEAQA

B1: endogenous IKK1 in MCF7 cells (enzyme, UniProt O15111 1-745, looked up)
chain: MERPPGLRPGAGGPWEMRERLGTGGFGNVCLYQHRELDLKIAIKSCRLELSTKNRERWCHEIQIMKKLNHANVVKACDVPEELNILIHDVPLLAMEYCSGGDLRKLLNKPENCCGLKESQILSLLSDIGSGIRYLHENKIIHRDLKPENIVLQDVGGKIIHKIIDLGYAKDVDQGSLCTSFVGTLQYLAPELFENKPYTATVDYWSFGTMVFECIAGYRPFLHHLQPFTWHEKIKKKDPKCIFACEEMSGEVRFSSHLPQPNSLCSLVVEPMENWLQLMLNWDPQQRGGPVDLTLKQPRCFVLMDHILNLKIVHILNMTSAKIISFLLPPDESLHSLQSRIERETGINTGSQELLSETGISLDPRKPASQCVLDGVRGCDSYMVYLFDKSKTVYEGPFASRSLSDCVNYIVQDSKIQLPIIQLRKVWAEAVHYVSGLKEDYSRLFQGQRAAMLSLLRYNANLTKMKNTLISASQQLKAKLEFFHKSIQLDLERYSEQMTYGISSEKMLKAWKEMEEKAIHYAEVGVIGYLEDQIMSLHAEIMELQKSPYGRRQGDLMESLEQRAIDLYKQLKHRPSDHSYSDSTEMVKIIVHTVQSQDRVLKELFGHLSKLLGCKQKIIDLLPKVEVALSNIKEADNTVMFMQGKRQKEIWHLLKIACTQSSARSLVGSSLEGAVTPQTSAWLPPTSAEHDHSLSCVVTPQDGETSAQMIEENLNCLGHLSTIIHEANEEQGNSMMNLDWSWLTE
notes: Endogenous protein in cell lysate
In the case of B1, the binding result is on record as “no binding”.

The record behind these values is patent publication US20120258539A1 (TEMPLE UNIVERSITY OF THE COMMONWEALTH OF HIGHER EDUCATION …, published 2012).
